# Test results published in paper PMC9646764.
# Where two headings read alike, the source gives them in different places.
# Columns and labels:
# Assay in all cases: BLI
# [1] = molecular target: TFPI-Fc (human IgG-Fc-tagged TFPI without the GPI anchor) (UniProt P10646); settings: for response: parent: est. 0.0, read off a plot
# [2] = molecular target: mTFPI-Fc (Fc-tagged mouse TFPI) (UniProt O54819); settings: 2000 nM fragment, read at end of association (~145 s), parent: est. 0.03, read off a plot
# [3] = molecular target: mTFPI-Fc (Fc-tagged mouse TFPI) (mouse) (UniProt O54819)
# [4] = molecular target: Chicken TFPI-Fc (chicken); settings: domain or fragment
# Sequence of mTFPI-Fc (Fc-tagged mouse TFPI) (O54819 29-217): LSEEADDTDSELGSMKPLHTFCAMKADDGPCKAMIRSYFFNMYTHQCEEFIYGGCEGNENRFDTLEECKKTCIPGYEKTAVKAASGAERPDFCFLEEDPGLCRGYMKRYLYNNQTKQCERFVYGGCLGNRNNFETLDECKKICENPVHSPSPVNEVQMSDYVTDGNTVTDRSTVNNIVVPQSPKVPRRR
# Sequence of mTFPI-Fc (Fc-tagged mouse TFPI) (mouse) (O54819 29-217): as above
# Sequence of TFPI-Fc (human IgG-Fc-tagged TFPI without the GPI anchor) (P10646 29-209): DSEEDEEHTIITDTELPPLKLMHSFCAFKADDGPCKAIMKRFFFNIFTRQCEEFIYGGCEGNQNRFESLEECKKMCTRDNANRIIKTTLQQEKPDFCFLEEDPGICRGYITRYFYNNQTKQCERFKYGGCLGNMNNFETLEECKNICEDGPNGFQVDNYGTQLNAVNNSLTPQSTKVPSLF
substance,measurement,setting,value
TcdB2.1_(1285-1804) S1495I; L1505P; C1509Y; N1596K; Q1599K,response,[1],0.66 nm
TcdB11.2_(1285-1804) F1506S; D1511Y; F1597S; V1598L,response,[2],0.67 nm
TcdB2.1_(1285-1804) L1505P; C1509Y; E1547K; N1596K; Q1599K,response,[1],0.1 nm
TcdB2.11_(1286-1805),Kd,[3]; domain or fragment,90.9 nM
same,koff,[3]; domain or fragment,0.00623 s⁻¹
same,Kd,[4],205 nM
same,koff,[4],0.0165 s⁻¹
same,Kd,[1]; domain or fragment,133 nM
same,koff,[1]; domain or fragment,0.0109 s⁻¹
TcdB4.2_(1286-1805) (domain or fragment),Kd,[3],24 nM
same,Kd,[1],50 nM
TcdB2.1_(1285-1804) S1495I; L1505P; C1509Y; E1547K,response,[1],0.62 nm
TcdB11.2_(1285-1804) F1597S; V1598L,response,[2],0.13 nm
TcdB2.1_(1285-1804) S1495I,response,[1],0.38 nm
TcdB11.2_(1285-1804) F1506S; D1511Y,response,[2],0.74 nm
